One test deals with Flag‐LUZP1 (mouse) (UniProt Q8R4U7). Nature of the test: pull-down; in vitro direct binding assay: Flag‐LUZP1 on anti‐Flag M2 affinity gel beads, GST‐MLC 0–8.0 μM in HBS, RT 60 min; washed in 300 mM NaCl, 50 mM Tris–HCl pH 7.5, 1 mM EDTA, 1 mM DTT; immunoblot densitometry, Michaelis–Menten fit. (In general: Immunoblotting shows a protein as a band on a membrane.)
A further test deals with HA‐PP1c β/δ (UniProt P62141 1-327). Nature of the test: cell-based or functional assay.
For test [1], the target named is Taxol‐stabilized microtubules (tubulin, Cytoskeleton Inc. #T240) (UniProt P02550). Put plainly: co-sedimentation; MT co‐sedimentation: Flag‐LUZP1 (10 μl of 7.7 nM in 20 μl) with 0–6 μM polymerized tubulin, GTP and Taxol, PME buffer/HBS, RT 60 min; 434,513 g, 25°C, 20 min; immunoblot densitometry, Michaelis–Menten fit.

On to “GST‐tagged wild‐type myosin light chain (from UniProt Q3THE2 1-172) (natural protein)”, for which the dissociation constant (Kd) with Flag‐LUZP1 (mouse) is 4040 nM.
Consider “GST‐tagged di‐dephosphomimetic myosin light chain (T18A, S19A) (natural protein)”, for which the Kd with Flag‐LUZP1 (mouse) amounted to 4880 nM.
“GST‐tagged di‐phosphomimetic myosin light chain (T18D, S19D) (natural protein)” gave a Kd in the test with Flag‐LUZP1 (mouse) of 850 nM.

B1: GFP‐LUZP1 (natural protein, mouse, UniProt Q8R4U7 1-1068, looked up)
chain: MAELTNYKDAASNRHLRFKLQSLSRRLDELEEATKNLQRAEDELLDLQDKVIQAEGSDSSTLAEIEVLRQRVLKIEGKDEEIKRAEDLCHTMKEKLEEEENLTRELKSEIERLQKRMVDLEKLEEALSRSKNECSQLCLSLNEERNLTKKISSELEMLRVKVKELESSEDRLDKTEQSLVSELEKLKSLTLSFVNERKYLNEKEKENEKIIKELTQKLEQNKKMNRDHMRNASTFLERNDLRIEDGISSTLSSKESKRKGSLDYLKQVENETRDKSENEKNRNQEDNKVKDLNQEIEKLKTQIKHFESLEEELKKMRAKNNDLQDNYLTELNRNRSLASQLEEIKLQVRKQKELGNGDIEGEDAFLLGRGRHERTKLKGHGSEASVSKHTSRELSPQHKRERLRNREFALSNEHYSLSSKQASSPVFTNKRAAKASNMGMGTDSGTQETKRTEDRFAPGSSHSEGKRGREQPSVLSRYPPAAQEHTKVWKGAPKPGTESGLKGKVEKTTRTFSDSTHVSVPNDIVGKGDKTSDLSSEAHCGKRGQVPGHASQGTQAVESSCSKAIGALSSSQKASSEGLSKGKKTANGLAADANFSNSKAPILSKYPYSSRSQENILQGFSLPNKEGVDQPVAVVMEDSSQHEALRCRVIKSSGREKPDSDDDLDIESFVTAKLVNTTITPEPEPKPQPNSREKVKSRGGTRTALFENDKNAAIENDSVKPTRPSSNAIEFPDANCAGVKNQRPFSPREALRSRAIIKPVIIDKDVKKIMGGSGTEVVLEKQKSTSKSVTSKVTSSITIYPSDSSGPRAVPSEAPRERHTSTSNIQVGPPELTAISNHVSSPLELSIHKHDITLQLTEAERVGDGSPKNRAEMVVSRSSILIKPSESVEKNSHVPPAETIRWKSHSASSDSRHITVRNAWKSKRDLKCSEDPPTGIGRNMEATNAYTQRPCTDFLELEQPRSQPSEQGARRVGNSGDAPELSPRRTQSSLTASEVLTRRDRMGGAITAASCNHSSSMEEGEDSTFVTSRRIHNPLEHSELPGKQGLPEPEPVWTEERLHPAKPYAEED
In the case of B1, in the test with HA‐PP1c β/δ, the “in vitro MLC phosphorylation assay with 1 μg MTs added (25 ng GST‐MLC, 4 ng GST‐ROCK1 catalytic domain, 1 μg GST‐PP1c β/δ, 0–5 μg GST‐LUZP1): ppMLC/MLC ratio relative to the control” value was 2.87 ratio relative to the control and the “in vitro Merlin phosphorylation assay with 1 μg MTs added (100 ng GST‐Merlin, 2 pg PAK1, 1 μg GST‐PP1c β/δ, 0–5 μg GST‐LUZP1): pMerlin/Merlin ratio relative to the control” value was 8.32 ratio relative to the control. This molecule also showed a Kd in test [1] of 780 nM.

As a reminder, the Kd is the equilibrium constant for the complex coming apart. A low value points to a tighter complex.

These data come from PMC7809799, “A microtubule‐LUZP1 association around tight junction promotes epithelial cell apical constriction” (The EMBO Journal, 2020).
